Experimental data: publication PMC3896865
Like-named read-outs stand apart in the source and are kept apart here.

Key:
Assay in all cases: ITC
[1] = molecular target: T1, EGR1 DB_WT (Zif268 DNA-binding domain) (human, UniProt P18146 331-430)
[2] = molecular target: T1, EGR1 DB_WT (Zif268 DNA-binding domain); remark: listed apart in the source
[3] = molecular target: EGR1 DB_H382K (human, UniProt P18146 331-430, H382K)
[4] = molecular target: EGR1 DB_H382E (human, UniProt P18146 331-430, H382E)
[5] = molecular target: EGR1 DB_H382A (human, UniProt P18146 331-430, H382A)
[6] = molecular target: EGR1 DB_H382R (human, UniProt P18146 331-430, H382R)
[7] = molecular target: T1, EGR1 DB_WT (Zif268 DNA-binding domain); remark: listed apart in the source
[8] = molecular target: T1, EGR1 DB_WT (Zif268 DNA-binding domain); remark: listed apart in the source
[9] = molecular target: T1, EGR1 DB_WT (Zif268 DNA-binding domain); remark: listed apart in the source
[10] = molecular target: T1, EGR1 DB_WT (Zif268 DNA-binding domain); remark: listed apart in the source
[11] = molecular target: T1, EGR1 DB_WT (Zif268 DNA-binding domain); remark: listed apart in the source
[12] = molecular target: T1, EGR1 DB_WT (Zif268 DNA-binding domain); remark: listed apart in the source
[13] = molecular target: T1, EGR1 DB_WT (Zif268 DNA-binding domain); remark: listed apart in the source
[14] = molecular target: T1, EGR1 DB_WT (Zif268 DNA-binding domain); remark: listed apart in the source

B1: ZRE duplex (15-mer) (dsDNA)
DNA 1: ATAGCGTGGGCGTTT
DNA 2: AAACGCCCACGCTAT
With B1 the Kd [1] was 324 nM, the Kd [2] was 421 nM and the Kd [3] was 2260 nM. For the same binder, the Kd [4] was 2300 nM, the Kd [5] was 1610 nM and the Kd [6] was 2040 nM. It also gave a Kd [7] of 1030 nM, a Kd [8] of 758 nM and a Kd [9] of 345 nM. It also gave a Kd [10] of 1330 nM, a Kd [11] of 755 nM and a Kd [12] of 266 nM. It also gave a Kd [13] of 271 nM and a Kd [14] of 314 nM.
